# Biological target: Rhizobium radiobacter MDC 8606 N-carbamoyl-β-alanine amidohydrolase (Rhizobium radiobacter MDC 8606)
# Assay: SEC; Superdex S200 16/60, 50 mM Tris-HCl pH 8.0, 150 mM NaCl; calibrated column; single major peak at 74.4 mL, apparent molecular weight 90 kDa
substance,measurement,value
Rhizobium radiobacter MDC 8606 N-carbamoyl-β-alanine amidohydrolase (enzyme),stoichiometry N,2
